The target of the test is T1, PD1-Fc (UniProt Q15116).
T1 construct: PD-1 (programmed cell death protein 1); most likely the extracellular domain of human PD-1 on a human IgG Fc
The test is described as follows: BLI; BLItz system; biotinylated 102c3 nanobody immobilised on SA2 biosensors, dipped in serial dilutions of PD1-Fc. The note with it: both partners purified. For orientation: In BLI a coated tip is dipped into the sample, and binding shifts an interference pattern.

T1 sequence (Q15116 25-170): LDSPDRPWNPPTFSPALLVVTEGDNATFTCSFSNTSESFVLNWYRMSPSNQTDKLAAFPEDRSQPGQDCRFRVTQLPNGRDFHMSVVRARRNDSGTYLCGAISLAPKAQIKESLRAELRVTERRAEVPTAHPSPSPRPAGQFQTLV

B1: nanobody 102c3 (anti-PD1 single-domain antibody, VHH), biotinylated (VHH)
VHH: EVQLVESGGGLVQAGKSLRLSCAASGSIFSIHAMGWFRQAPGKEREFVAAITWSGGITYYEDSVKGRFTISRDNAKNTVYLQMNSLKPEDTAIYYCAADRAESSWYDYWGQGTQVTVSS
notes: the whole synthesised fragment translates to MGSR...PQPDPSP; also called 102c3 nanobody; 102c3 VHH; source: E. coli BL21DE3-BirA, periplasm extract, purified (HIS Mag Sepharose Excel, dialysis against PBS); not shown: biotinylation signal, C-terminal, kept
In the case of B1, the binding result was “binds”.

The values above are taken from article PMC8548718 (Frontiers in Molecular Biosciences, 2021).
